Key:
Assay in all cases: cell-based or functional assay
[1] = target: HIV-1 Env of strain 620345.c01 (HIV-1)
[2] = target: HIV-1 Env of strain THRO4156.18 (HIV-1)
[3] = target: Env of HIV-1 strain Q259.d2.17 (HIV-1)
[4] = target: Env of HIV-1 strain PVO.4 (HIV-1)
[5] = target: Env of HIV-1 strain ZM53M.PB12 (HIV-1)
[6] = target: HIV-1 Env of strain Q461.e2 (HIV-1)
[7] = target: Env of HIV-1 strain 3103.v3.c10 (HIV-1)
[8] = target: Env of HIV-1 strain CAP210.2.00.E8 (HIV-1)
[9] = target: HIV-1 Env of strain 191821_E6_1 (HIV-1)
[10] = target: Env of HIV-1 strain BJOX028000.10.3 (HIV-1)
[11] = target: Env of HIV-1 strain 6244_13_B5_4576 (HIV-1)
[12] = target: HIV-1 Env of strain AC10.0.29 (HIV-1)
[13] = target: HIV-1 Env of strain Ce1172_H1 (HIV-1)
[14] = target: Env of HIV-1 strain Q842.d12 (HIV-1)
[15] = target: Env of HIV-1 strain 1012_11_TC21_3257 (HIV-1)
[16] = target: Env of HIV-1 strain WEAU_d15_410_787 (HIV-1)
[17] = target: Env of HIV-1 strain 6811.v7.c18 (HIV-1)
[18] = target: Env of HIV-1 strain Ce2010_F5 (HIV-1)
[19] = target: Env of HIV-1 strain P0402_c2_11 (HIV-1)
[20] = target: Env of HIV-1 strain CNE58 (HIV-1)
[21] = target: HIV-1 Env of strain CNE20 (HIV-1)
[22] = target: HIV-1 Env of strain SC422661.8 (HIV-1)
[23] = target: HIV-1 Env of strain C2101.c01 (HIV-1)
[24] = target: HIV-1 Env of strain Ce1176_A3 (HIV-1)
[25] = target: Env of HIV-1 strain ZM249M.PL1 (HIV-1)
[26] = target: HIV-1 Env of strain 0815.v3.c3 (HIV-1)
[27] = target: Env of HIV-1 strain Du156.12 (HIV-1)
[28] = target: Env of HIV-1 strain C2101.c01 (HIV-1)
[29] = target: Env of HIV-1 strain 1394C9G1(Rev-) (HIV-1)
[30] = target: HIV-1 Env of strain Ce0682_E4 (HIV-1)
[31] = target: Env of HIV-1 strain 191955_A11 (HIV-1)
[32] = target: HIV-1 Env of strain CAAN5342.A2 (HIV-1)
[33] = target: HIV-1 Env of strain SC05_8C11_2344 (HIV-1)
[34] = target: HIV-1 Env of strain 7030102001E5(Rev) (HIV-1)
[35] = target: HIV-1 Env of strain P0402_c2_11 (HIV-1)
[36] = target: HIV-1 Env of strain TRJO4551.58 (HIV-1)
[37] = target: HIV-1 Env of strain HIV-001428-2.42 (HIV-1)
[38] = target: HIV-1 Env of strain Ce0393_C3 (HIV-1)
[39] = target: Env of HIV-1 strain 1056_10_TA11_1826 (HIV-1)
[40] = target: HIV-1 Env of strain 3817.v2.c59 (HIV-1)
[41] = target: Env of HIV-1 strain ZM233M.PB6 (HIV-1)
[42] = target: Env of HIV-1 strain THRO4156.18 (HIV-1)
[43] = target: HIV-1 Env of strain 6240_08_TA5_4622 (HIV-1)
[44] = target: Env of HIV-1 strain RHPA4259.7 (HIV-1)
[45] = target: HIV-1 Env of strain 211-9 (HIV-1)
[46] = target: Env of HIV-1 strain R2184.c04 (HIV-1)
[47] = target: Env of HIV-1 strain CNE52 (HIV-1)
[48] = target: HIV-1 Env of strain RHPA4259.7 (HIV-1)
[49] = target: Env of HIV-1 strain ZM214M.PL15 (HIV-1)
[50] = target: Env of HIV-1 strain HIV-16845-2.22 (HIV-1)

Sequence of NIH45-46 (antibody) (VH): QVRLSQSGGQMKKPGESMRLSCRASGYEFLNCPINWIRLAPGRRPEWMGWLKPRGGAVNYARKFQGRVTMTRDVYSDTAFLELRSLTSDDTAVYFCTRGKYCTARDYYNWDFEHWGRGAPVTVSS
Sequence of NIH45-46 (antibody) (V domain): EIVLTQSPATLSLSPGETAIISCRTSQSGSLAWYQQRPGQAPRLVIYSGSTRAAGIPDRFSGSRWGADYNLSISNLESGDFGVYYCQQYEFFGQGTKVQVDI

Substance: NIH45-46 (antibody)
- IC50, pseudovirus neutralization [1]: > 50 µg/mL
- IC50, pseudovirus neutralization [2]: 1.91 µg/mL
- IC80 [3]: 0.154 µg/mL
- IC80 [4]: 0.41 µg/mL
- IC80 [5]: 0.61 µg/mL
- IC50, pseudovirus neutralization [6]: 0.076 µg/mL
- IC80 [7]: 6.15 µg/mL
- IC80 [8]: > 50 µg/mL
- IC50, pseudovirus neutralization [9]: 0.09 µg/mL
- IC80 [10]: > 50 µg/mL
- IC80 [11]: 0.26 µg/mL
- IC50, pseudovirus neutralization [12]: 0.56 µg/mL
- IC50, pseudovirus neutralization [13]: > 50 µg/mL
- IC80 [14]: 0.073 µg/mL
- IC80 [15]: 0.04 µg/mL
- IC80 [16]: 0.015 µg/mL
- IC80 [17]: 0.113 µg/mL
- IC80 [18]: 0.357 µg/mL
- IC80 [19]: 0.214 µg/mL
- IC80 [20]: 2.08 µg/mL
- IC50, pseudovirus neutralization [21]: 7.83 µg/mL
- IC50, pseudovirus neutralization [22]: 0.06 µg/mL
- IC50, pseudovirus neutralization [23]: 4.24 µg/mL
- IC50, pseudovirus neutralization [24]: 0.93 µg/mL
- IC80 [25]: 0.053 µg/mL
- IC50, pseudovirus neutralization [26]: 0.014 µg/mL
- IC80 [27]: 0.054 µg/mL
- IC80 [28]: 31.4 µg/mL
- IC80 [29]: 0.38 µg/mL
- IC50, pseudovirus neutralization [30]: 0.054 µg/mL
- IC80 [31]: 0.43 µg/mL
- IC50, pseudovirus neutralization [32]: 0.15 µg/mL
- IC50, pseudovirus neutralization [33]: 0.14 µg/mL
- IC50, pseudovirus neutralization [34]: 0.14 µg/mL
- IC50, pseudovirus neutralization [35]: 0.073 µg/mL
- IC50, pseudovirus neutralization [36]: 0.04 µg/mL
- IC50, pseudovirus neutralization [37]: 0.001 µg/mL
- IC50, pseudovirus neutralization [38]: 0.334 µg/mL
- IC80 [39]: 0.447 µg/mL
- IC50, pseudovirus neutralization [40]: > 50 µg/mL
- IC80 [41]: 14.2 µg/mL
- IC80 [42]: 8.22 µg/mL
- IC50, pseudovirus neutralization [43]: 0.44 µg/mL
- IC80 [44]: 0.047 µg/mL
- IC50, pseudovirus neutralization [45]: > 50 µg/mL
- IC80 [46]: 0.127 µg/mL
- IC80 [47]: 0.12 µg/mL
- IC50, pseudovirus neutralization [48]: 0.017 µg/mL
- IC80 [49]: 0.59 µg/mL
- IC80 [50]: 22.6 µg/mL

Reference: patent US20130209454A1
